Test results as given in US20260001928A1 (CORTERIA PHARMACEUTICALS, priority 2022, published 2026).
*1 amine or outer side, *2 acyl side, *3 side chain or, on linkers, in order; H or OH if unused. Where no end group is shown, it is not given here. Side-chain parts run from the residue outwards. [ ]: non-standard residue; d: D form. The star is where a group is joined. C18 diacid = O=C(O)CCCCCCCCCCCCCCCCC(=O)*; C16 diacid = O=C(O)CCCCCCCCCCCCCCC(=O)*; γGlu = O=C(O)[C@H](CCC(=O)[*:2])N[*:1]; C12 diacid = O=C(O)CCCCCCCCCCC(=O)*; NMeI = CC[C@H](C)[C@H](NC)C(=O)O; Api = NC1(C(=O)O)CCNCC1; Pentanoyl = CCCCC(=O)*; Aib = CC(C)(N)C(=O)O; Propionyl = CCC(=O)*

T1: CRF1R receptor (UniProt P34998 24-415, limits assumed)
T1 sequence (looked up): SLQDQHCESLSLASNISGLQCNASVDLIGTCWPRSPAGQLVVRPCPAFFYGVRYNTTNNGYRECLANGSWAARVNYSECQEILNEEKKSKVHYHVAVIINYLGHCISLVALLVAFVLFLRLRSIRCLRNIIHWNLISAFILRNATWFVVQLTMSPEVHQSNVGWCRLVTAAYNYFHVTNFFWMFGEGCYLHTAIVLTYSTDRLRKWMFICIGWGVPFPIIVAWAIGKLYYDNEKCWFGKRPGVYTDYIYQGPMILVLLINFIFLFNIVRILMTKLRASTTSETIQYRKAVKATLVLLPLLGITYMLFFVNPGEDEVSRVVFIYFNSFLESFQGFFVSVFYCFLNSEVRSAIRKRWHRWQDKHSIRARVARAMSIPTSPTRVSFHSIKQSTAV

B1: SEQ ID NO 6 (peptide)
peptide: Propionyl-VLSLD[dV]PIKLK([γGlu-C16 diacid])QILLKQERQKKQREQAEKNKQILEQV-NH2
SMILES: CCC(=O)N[C@H](C(=O)N[C@@H](CC(C)C)C(=O)N[C@@H](CO)C(=O)N[C@@H](CC(C)C)C(=O)N[C@@H](CC(=O)O)C(=O)N[C@@H](C(=O)N1CCC[C@H]1C(=O)N[C@H](C(=O)N[C@@H](CCCCN)C(=O)N[C@@H](CC(C)C)C(=O)N[C@@H](CCCCNC(=O)CC[C@H](NC(=O)CCCCCCCCCCCCCCC(=O)O)C(=O)O)C(=O)N[C@@H](CCC(N)=O)C(=O)N[C@H](C(=O)N[C@@H](CC(C)C)C(=O)N[C@@H](CC(C)C)C(=O)N[C@@H](CCCCN)C(=O)N[C@@H](CCC(N)=O)C(=O)N[C@@H](CCC(=O)O)C(=O)N[C@@H](CCCNC(=N)N)C(=O)N[C@@H](CCC(N)=O)C(=O)N[C@@H](CCCCN)C(=O)N[C@@H](CCCCN)C(=O)N[C@@H](CCC(N)=O)C(=O)N[C@@H](CCCNC(=N)N)C(=O)N[C@@H](CCC(=O)O)C(=O)N[C@@H](CCC(N)=O)C(=O)N[C@@H](C)C(=O)N[C@@H](CCC(=O)O)C(=O)N[C@@H](CCCCN)C(=O)N[C@@H](CC(N)=O)C(=O)N[C@@H](CCCCN)C(=O)N[C@@H](CCC(N)=O)C(=O)N[C@H](C(=O)N[C@@H](CC(C)C)C(=O)N[C@@H](CCC(=O)O)C(=O)N[C@@H](CCC(N)=O)C(=O)N[C@H](C(N)=O)C(C)C)[C@@H](C)CC)[C@@H](C)CC)[C@@H](C)CC)C(C)C)C(C)C
B2: SEQ ID NO 185 (peptide)
peptide: Pentanoyl-VLSLD[dV]PIKLK([γGlu-C12 diacid])KILLEQEKQKKQREQAETN[Aib]QILAQV-NH2
SMILES: CCCCC(=O)N[C@H](C(=O)N[C@@H](CC(C)C)C(=O)N[C@@H](CO)C(=O)N[C@@H](CC(C)C)C(=O)N[C@@H](CC(=O)O)C(=O)N[C@@H](C(=O)N1CCC[C@H]1C(=O)N[C@H](C(=O)N[C@@H](CCCCN)C(=O)N[C@@H](CC(C)C)C(=O)N[C@@H](CCCCNC(=O)CC[C@H](NC(=O)CCCCCCCCCCC(=O)O)C(=O)O)C(=O)N[C@@H](CCCCN)C(=O)N[C@H](C(=O)N[C@@H](CC(C)C)C(=O)N[C@@H](CC(C)C)C(=O)N[C@@H](CCC(=O)O)C(=O)N[C@@H](CCC(N)=O)C(=O)N[C@@H](CCC(=O)O)C(=O)N[C@@H](CCCCN)C(=O)N[C@@H](CCC(N)=O)C(=O)N[C@@H](CCCCN)C(=O)N[C@@H](CCCCN)C(=O)N[C@@H](CCC(N)=O)C(=O)N[C@@H](CCCNC(=N)N)C(=O)N[C@@H](CCC(=O)O)C(=O)N[C@@H](CCC(N)=O)C(=O)N[C@@H](C)C(=O)N[C@@H](CCC(=O)O)C(=O)N[C@H](C(=O)N[C@@H](CC(N)=O)C(=O)NC(C)(C)C(=O)N[C@@H](CCC(N)=O)C(=O)N[C@H](C(=O)N[C@@H](CC(C)C)C(=O)N[C@@H](C)C(=O)N[C@@H](CCC(N)=O)C(=O)N[C@H](C(N)=O)C(C)C)[C@@H](C)CC)[C@@H](C)O)[C@@H](C)CC)[C@@H](C)CC)C(C)C)C(C)C
B3: SEQ ID NO 186 (peptide)
peptide: [NMeI]VLSLD[dV]PIKLK([γGlu-C12 diacid])KILLEQEKQKKQREQAETN[Aib]QILAQV-NH2
modifications: N-terminus assumed
SMILES: CC[C@H](C)[C@H](NC)C(=O)N[C@H](C(=O)N[C@@H](CC(C)C)C(=O)N[C@@H](CO)C(=O)N[C@@H](CC(C)C)C(=O)N[C@@H](CC(=O)O)C(=O)N[C@@H](C(=O)N1CCC[C@H]1C(=O)N[C@H](C(=O)N[C@@H](CCCCN)C(=O)N[C@@H](CC(C)C)C(=O)N[C@@H](CCCCNC(=O)CC[C@H](NC(=O)CCCCCCCCCCC(=O)O)C(=O)O)C(=O)N[C@@H](CCCCN)C(=O)N[C@H](C(=O)N[C@@H](CC(C)C)C(=O)N[C@@H](CC(C)C)C(=O)N[C@@H](CCC(=O)O)C(=O)N[C@@H](CCC(N)=O)C(=O)N[C@@H](CCC(=O)O)C(=O)N[C@@H](CCCCN)C(=O)N[C@@H](CCC(N)=O)C(=O)N[C@@H](CCCCN)C(=O)N[C@@H](CCCCN)C(=O)N[C@@H](CCC(N)=O)C(=O)N[C@@H](CCCNC(=N)N)C(=O)N[C@@H](CCC(=O)O)C(=O)N[C@@H](CCC(N)=O)C(=O)N[C@@H](C)C(=O)N[C@@H](CCC(=O)O)C(=O)N[C@H](C(=O)N[C@@H](CC(N)=O)C(=O)NC(C)(C)C(=O)N[C@@H](CCC(N)=O)C(=O)N[C@H](C(=O)N[C@@H](CC(C)C)C(=O)N[C@@H](C)C(=O)N[C@@H](CCC(N)=O)C(=O)N[C@H](C(N)=O)C(C)C)[C@@H](C)CC)[C@@H](C)O)[C@@H](C)CC)[C@@H](C)CC)C(C)C)C(C)C
B4: SEQ ID NO 187 (peptide)
peptide: Ac-IVLSLD[dV]PIKLK([γGlu-C18 diacid])KILLEQEKQKAQREQAETN[Api]QILAQV-NH2
SMILES: CC[C@H](C)[C@H](NC(C)=O)C(=O)N[C@H](C(=O)N[C@@H](CC(C)C)C(=O)N[C@@H](CO)C(=O)N[C@@H](CC(C)C)C(=O)N[C@@H](CC(=O)O)C(=O)N[C@@H](C(=O)N1CCC[C@H]1C(=O)N[C@H](C(=O)N[C@@H](CCCCN)C(=O)N[C@@H](CC(C)C)C(=O)N[C@@H](CCCCNC(=O)CC[C@H](NC(=O)CCCCCCCCCCCCCCCCC(=O)O)C(=O)O)C(=O)N[C@@H](CCCCN)C(=O)N[C@H](C(=O)N[C@@H](CC(C)C)C(=O)N[C@@H](CC(C)C)C(=O)N[C@@H](CCC(=O)O)C(=O)N[C@@H](CCC(N)=O)C(=O)N[C@@H](CCC(=O)O)C(=O)N[C@@H](CCCCN)C(=O)N[C@@H](CCC(N)=O)C(=O)N[C@@H](CCCCN)C(=O)N[C@@H](C)C(=O)N[C@@H](CCC(N)=O)C(=O)N[C@@H](CCCNC(=N)N)C(=O)N[C@@H](CCC(=O)O)C(=O)N[C@@H](CCC(N)=O)C(=O)N[C@@H](C)C(=O)N[C@@H](CCC(=O)O)C(=O)N[C@H](C(=O)N[C@@H](CC(N)=O)C(=O)NC1(C(=O)N[C@@H](CCC(N)=O)C(=O)N[C@H](C(=O)N[C@@H](CC(C)C)C(=O)N[C@@H](C)C(=O)N[C@@H](CCC(N)=O)C(=O)N[C@H](C(N)=O)C(C)C)[C@@H](C)CC)CCNCC1)[C@@H](C)O)[C@@H](C)CC)[C@@H](C)CC)C(C)C)C(C)C
B5: SEQ ID NO 188 (peptide)
peptide: Ac-IVLSLD[dV]PIKLK([γGlu-C18 diacid])KILLEQEKQK[Aib]QREQAETN[Api]QILAQV-NH2
SMILES: CC[C@H](C)[C@H](NC(C)=O)C(=O)N[C@H](C(=O)N[C@@H](CC(C)C)C(=O)N[C@@H](CO)C(=O)N[C@@H](CC(C)C)C(=O)N[C@@H](CC(=O)O)C(=O)N[C@@H](C(=O)N1CCC[C@H]1C(=O)N[C@H](C(=O)N[C@@H](CCCCN)C(=O)N[C@@H](CC(C)C)C(=O)N[C@@H](CCCCNC(=O)CC[C@H](NC(=O)CCCCCCCCCCCCCCCCC(=O)O)C(=O)O)C(=O)N[C@@H](CCCCN)C(=O)N[C@H](C(=O)N[C@@H](CC(C)C)C(=O)N[C@@H](CC(C)C)C(=O)N[C@@H](CCC(=O)O)C(=O)N[C@@H](CCC(N)=O)C(=O)N[C@@H](CCC(=O)O)C(=O)N[C@@H](CCCCN)C(=O)N[C@@H](CCC(N)=O)C(=O)N[C@@H](CCCCN)C(=O)NC(C)(C)C(=O)N[C@@H](CCC(N)=O)C(=O)N[C@@H](CCCNC(=N)N)C(=O)N[C@@H](CCC(=O)O)C(=O)N[C@@H](CCC(N)=O)C(=O)N[C@@H](C)C(=O)N[C@@H](CCC(=O)O)C(=O)N[C@H](C(=O)N[C@@H](CC(N)=O)C(=O)NC1(C(=O)N[C@@H](CCC(N)=O)C(=O)N[C@H](C(=O)N[C@@H](CC(C)C)C(=O)N[C@@H](C)C(=O)N[C@@H](CCC(N)=O)C(=O)N[C@H](C(N)=O)C(C)C)[C@@H](C)CC)CCNCC1)[C@@H](C)O)[C@@H](C)CC)[C@@H](C)CC)C(C)C)C(C)C
B6: SEQ ID NO 184 (peptide)
peptide: Ac-IVLSLD[dV]PIKLK([γGlu-C12 diacid])KILLEQEKQK[Aib]QREQAETN[Api]QILAQV-NH2
SMILES: CC[C@H](C)[C@H](NC(C)=O)C(=O)N[C@H](C(=O)N[C@@H](CC(C)C)C(=O)N[C@@H](CO)C(=O)N[C@@H](CC(C)C)C(=O)N[C@@H](CC(=O)O)C(=O)N[C@@H](C(=O)N1CCC[C@H]1C(=O)N[C@H](C(=O)N[C@@H](CCCCN)C(=O)N[C@@H](CC(C)C)C(=O)N[C@@H](CCCCNC(=O)CC[C@H](NC(=O)CCCCCCCCCCC(=O)O)C(=O)O)C(=O)N[C@@H](CCCCN)C(=O)N[C@H](C(=O)N[C@@H](CC(C)C)C(=O)N[C@@H](CC(C)C)C(=O)N[C@@H](CCC(=O)O)C(=O)N[C@@H](CCC(N)=O)C(=O)N[C@@H](CCC(=O)O)C(=O)N[C@@H](CCCCN)C(=O)N[C@@H](CCC(N)=O)C(=O)N[C@@H](CCCCN)C(=O)NC(C)(C)C(=O)N[C@@H](CCC(N)=O)C(=O)N[C@@H](CCCNC(=N)N)C(=O)N[C@@H](CCC(=O)O)C(=O)N[C@@H](CCC(N)=O)C(=O)N[C@@H](C)C(=O)N[C@@H](CCC(=O)O)C(=O)N[C@H](C(=O)N[C@@H](CC(N)=O)C(=O)NC1(C(=O)N[C@@H](CCC(N)=O)C(=O)N[C@H](C(=O)N[C@@H](CC(C)C)C(=O)N[C@@H](C)C(=O)N[C@@H](CCC(N)=O)C(=O)N[C@H](C(N)=O)C(C)C)[C@@H](C)CC)CCNCC1)[C@@H](C)O)[C@@H](C)CC)[C@@H](C)CC)C(C)C)C(C)C

target: T1, CRF1R receptor; assay: cell-based or functional assay

Binder	EC50 [nM]	Emax (% I) [%]
B1	166	56
B2		2
B3		2
B4	195	37
B5		32
B6		3

target: human corticotropin-releasing factor 2a (CRF2a receptor) (human), Q13324; assay: cell-based or functional assay
Sequence (Q13324 20-411): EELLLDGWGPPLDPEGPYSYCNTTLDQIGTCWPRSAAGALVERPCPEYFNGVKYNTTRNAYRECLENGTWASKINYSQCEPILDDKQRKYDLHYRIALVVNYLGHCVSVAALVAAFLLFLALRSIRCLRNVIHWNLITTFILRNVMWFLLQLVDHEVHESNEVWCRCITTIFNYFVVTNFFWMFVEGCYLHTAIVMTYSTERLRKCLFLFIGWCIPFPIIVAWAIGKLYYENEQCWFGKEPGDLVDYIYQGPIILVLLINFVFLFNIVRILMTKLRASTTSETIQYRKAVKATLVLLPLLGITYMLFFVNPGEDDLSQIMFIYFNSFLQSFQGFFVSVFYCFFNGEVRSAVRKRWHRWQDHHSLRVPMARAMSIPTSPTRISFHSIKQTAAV

Binder	EC50 [nM] (cAMP)
B1	0.09
B2	3.54
B3	0.79
B4	0.26
B5	0.28
B6	4.25
